Experiment: soluble on expression in E. coli; label from the status in PepcDB or PDB records

| Sequence | soluble on expression in E. coli |
| --- | --- |
| VTPSEGNAPLPELHNTVVVAAFEGWNDAGDAAGDAVAHLAASWQALPIVEIDDEAYYDYQVNRPVIRQVDGVTRELQWPAMRISHCRPPGSDRDVVLMCGVEPNMRWRTFCDELLAVIDKLNVDTVVILGALLADTPHTRPVPVSGAAYSAASARQFGLQETRYEGPTGIAGVFQSACVGAGIPAVTFWAAVPHYVSHPPNPKATIALLRRVEDVLDVEVPLADLPAQAEAWEREITETIAEDHELAEYVQTLEQHGDAAVDMNEALGNIDGDALAAEFERYLRRRRPGFGR | soluble |
| MSLKDMSYQAVMGRNNEIMKNAIGLDYSSFEQEGIGFDYEKMMSETGYTLQDIEAIQSQYAVGNTPLIELKNLTKLARKCAKEGKGARIFVKDEAMNASGSFKARRAATAVYHAKQMGYKGVIAATSGNYGAAVASQAAMQGLKCIIVQECYDSNGVGQPEIIEKARKCEAYGAEVVQLTVGPELFYTFLVLLEETGYFNASLYSPFGIAGVETLGYELAIQFREKYKKDPDIVVCTNAGGGNLTGTARGLIKAGSINTKVVGASVDLKGLHMASDNQFNKKSFTTGHTGFGIPYCTWPDRSDVPRSAARPLRYMDRYVLVKQGEVFYTTELLAQLEGIERGPAGNTSLAAAFSLAQELDEDKAIVVQETEYTGAGKHICPQLTFARENGIDIKFGNPREEIAGVNLILPERPELLKCVDIDMNKIRNSFIKNCISNNHIDNIDKLSNRDIEFLMEEVKSSRDFVVDVLNNLEGHHHHHH | not soluble |
| MHLHISSIPHRNSNNSKGGVLDATGPMLSAKRGALLLQAYHRPGEVISYKAGDYHLVPKKFTVGKRIAVRSYLDRNRTELSDRTFMPQKNWFRPYDLQDGCFDRDHERLSYRFYNLETKVIWKAFDTPELIGMLLHDETVKGNSGMYAPDMLDAALHYTREARYWRCIGITKPFYDRNTLRAHCWEDNGLQVGTLVMSQAMRHALMDLERAVRRKELGLEPNYLWDRWGPIGFIDGARADYLPRFEHNPYVDPDGVDVTEIDVLPFNTHEQIRERYRDFIEPDTAPFEEVFRSPSHGSLTTLADIPNASVVALYKDLKLKAGTPVAGDAVELAPADVRTLFYLSANPEWRAVADGKASWEEVVDAMQPVQAELDEKIDAARLLQNTRHNAERVRAFFEEKCGFHDFMYTPDKTITAAVLCYLTELRRICTETAWGAALAKCLTDMERVQGMGRDAFLVYRHIEDAILDKKRRLWAGRFAGESHEESTLDYLLENFGRRAERPRNVGTTGVEFDREQEPIGRQVQRRVLDSDKANKLAEIRRSRGKMWSKKRSVFDALHEKQLQNFNYGVH | soluble |
| MRIEDKLYLNRYRTDEENPHLKIKDESICAEKCSDRPCVSCCPADVYEWTESGMEVKFEGCLECGTCRIVCPFGNIEWNYPRGNYGVLYKFG | soluble |
| MGSDKIHHHHHHMKQLILFLLCLSTWTAQAKIYNVKDYGAKADGTTIDSPAINRAIEEAASQGGGTVYFPAGEYACYSIRLASHIHLYIEQGARIVGAFPSATEGYDPAEPNEHTQFQDFGHSHWKNSLIWGIGLEDITISGPGLIYGKGLTREESRLPGVGNKAISLKLCKNVTLKDFSLLHCGHFGLLATGVDNLSILNVKVDTNRDGFDIDCCKNVRISHCTVNAPWDDAIVLKASYGLGYFKDTENVTISDCFVSGYDRGSVLDCTWQRDEPQAPDHGFVTGRIKLGTESSGGFKNIAITNCIFERCRGLALETVDGGKLEDIVISNITMRDIVNAPIFLRLGARMRSPQGTPVGTMKRILISHVNVFNADSRYSSIISGIPGALIEDVTLSDIHIYHQGGYTEADGLLTPPEQEKVYPEPWMFGTIPAKGFYIRHARNITLDNVNFHYEKADGRPLFVTDDASDIRYRNITVDGKEFNTAN | not soluble |
| MDGLFEFCQLSTGGSVAGAVKLNRQQTDMAVNWAGGLHHAKKYEASGFCYVNDIVLAILELLKYHQRVLYIDIDIHHGDGVEEAFYTTDRVMTVSFHKYGEYFPGTGDLRDIGAGKGKYYAVNFPMCDGIDDESYGQIFKPIISKVMEMYQPSAVVLQCGADSLSGDRLGCFNLTVKGHAKCVEVVKTFNLPLLMLGGGGYTIRNVARCWTYETAVALDCEIPNELPYNDYFEYFGPDFKLHISPSNMTNQNTPEYMEKIKQRLFENLRMLPHAPGVQMQAIPEDAVHEDSGDEDGEDPDKRISIRASDKRIACDEEFSDSEDEGEGGRRNVADHKKGAKKARIEEDKKETEDKKTDVKEEDKSKDNLEHHHHHH | soluble |
| MVLFDVKKYETPDAKDVDMEQTKHNVSVFLSAYLAARCRVGQPREPKVTASFSLVPPSTAKNTFEAEQMLIQKEEAQEEFDYLHKLFVRGYSAIQHPHKPDVTERRKRIFYDRYINGNPIYLAAQRNCISEESVKQESNMIIVQFASALELVAFK | not soluble |
| MFKPELLSPAGTLKNMRYAFAYGADAVYAGQPRYSLRVRNNEFNHENLQLGINEAHALGKKFYVVVNIAPHNAKLKTFIRDLKPVVEMGPDALIMSDPGLIMLVREHFPEMPIHLSVQANAVNWATVKFWQQMGLTRVILSRELSLEEIEEIRNQVPDMEIEIFVHGALCMAYSGRCLLSGYINKRDPNQGTCTNACRWEYNVQEGKEDDVGNIVHKYEPIPVQNVEPTLGIGAPTDKVFMIEEAQRPGEYMTAFEDEHGTYIMNSKDLRAIAHVERLTKMGVHSLKIEGRTKSFYYCARTAQVYRKAIDDAAAGKPFDTSLLETLEGLAHRGYTEGFLRRHTHDDYQNYEYGYSVSDRQQFVGEFTGERKGDLAAVAVKNKFSVGDSLELMTPQGNINFTLEHMENAKGEAMPVAPGDGYTVWLPVPQDLELNYALLMRNFSGETTRNPHGK | not soluble |
| KSLLTAKTRNTIIFAFHPQAQKSSVAAAKIVYQAARKAGAPKDFIQWIETPSLENTTALMQNPEIASILATGGPSMVHAALTSGNPSMGVGAGNGAVFIDHTARVRRAAEDLLLSKRFDNGMICATE | not soluble |
| GFVKEPFFTRLIDLESPFEEEFDKNVRYEIKRAQKESLLFSWGEGVPRFVKFFNAFAQSKGLSLLNEAELSYMGEHLRLTEIRANGEPLVMHSYLLDHSIKRVRLLHSASLFRLSQEKDFRALVGRANRLLHFLDMERFKEEGFKIYDFGGVSHSQDPALLGINRFKEGFGGRE | not soluble |
| MGNDKRSQIFTLSRYAGILRRCLKENAMSAQKPGLHPRNRHHSRYDLATLCQVNPELRQFLTLTPAGEQSVDFANPLAVKALNKALLAHFYAVANWDIPDGFLCPPVPGRADYIHHLADLLAEASGTIPANASILDIGVGANCIYPLIGVHEYGWRFTGSETSSQALSSAQAIISSNPGLNRAIRLRRQKESGAIFNGIIHKNEQYDATLCNPPFHDSAAAARAGSERKRRNLGLNKDDALNFGGQQQELWCEGGEVTFIKKMIEESKGFAKQVMWFTSLVSRGENLPPLYRALTDVGAVKVVKKEMAQGQKQSRFIAWTFMNDEQRRRFVNRQRLEHHHHHH | not soluble |
| MSLGFKEYYRAFPTYTKIESKEYKGRVETLGPILIKYMNKNRGKVLDLACGVGGFSFFLEDLGFDVVGLDNNPEMIEAAKRYAEKRSSKVNFVVGDAKNLPFENNSFDYVIFIDSIFHFTPSELNQVFKEVKRVIKPEGRFLIYFTDLRELLPNLKERLVIGEKYWVNRITTDTSERIATIEFKSEDDEFRVEFNIWGKTGVELLAKLYFTKEAEEKVGGYSYLIVYNPKEGHHHHHH | soluble |
| MSSLCPYTGRPTGLFRDFEDMMPYWAQRHSMLNNFNNIVPQQLNEVENTAQKFCVKLDVAAFKPEELKVNLEGHVLTIEGHHEVKTEHGFSKRSFTRQFTLPKDVDLAHIHTVINKEGQMTIDAPKTGSNTTVRALPIHTSAGHAVTQKPSSTTTTGKH | not soluble |
| MTEDEWEKQSSFVPVNADPLSPYTEKVKTLAAHRLDFHIRENLRLGVGELTMIGGKYPDLFAVSPFSIWHNNYNEGYTNSMASFDFSWVPKKGFEVHGEFVLDDLVGTTENESKPTAYAFNVGVRRALSTGSLKGVLGVEYALATKFVYNTFLPYLKFNNRIVYLTNLPSSRTIVDYPVGFAFGPDAKLLNVSFDLFKENVSLETDFFYLVKGPNTLYTEYPTAEEGETKTIFGASLRGKIGHVSFSLLFSGSEFLAGLGIEFGF | not soluble |
| MGHHHHHHSHLEGPDCCFKSTVAAKLSKELKYPIIKGSSFELAKSGNEKLFEHFNKLADEDNVIIDRFVYSNLVYAKKFKDYSILTERQLRFIEDKIKAKAKVVYLHADPSVIKKRLRVRGDEYIEGKDIDSILELYREVMSNAGLHTYSWDTGQWSSDEIAKDI | not soluble |

— the DeepSol protein solubility set
